B1: Myosin-7 (Homo sapiens), P12883 (parent)
chain: MGDSEMAVFGAAAPYLRKSEKERLEAQTRPFDLKKDVFVPDDKQEFVKAKIVSREGGKVTAETEYGKTVTVKEDQVMQQNPPKFDKIEDMAMLTFLHEPAVLYNLKDRYGSWMIYTYSGLFCVTVNPYKWLPVYTPEVVAAYRGKKRSEAPPHIFSISDNAYQYMLTDRENQSILITGESGAGKTVNTKRVIQYFAVIAAIGDRSKKDQSPGKGTLEDQIIQANPALEAFGNAKTVRNDNSSRFGKFIRIHFGATGKLASADIETYLLEKSRVIFQLKAERDYHIFYQILSNKKPELLDMLLITNNPYDYAFISQGETTVASIDDAEELMATDNAFDVLGFTSEEKNSMYKLTGAIMHFGNMKFKLKQREEQAEPDGTEEADKSAYLMGLNSADLLKGLCHPRVKVGNEYVTKGQNVQQVIYATGALAKAVYERMFNWMVTRINATLETKQPRQYFIGVLDIAGFEIFDFNSFEQLCINFTNEKLQQFFNHHMFVLEQEEYKKEGIEWTFIDFGMDLQACIDLIEKPMGIMSILEEECMFPKATDMTFKAKLFDNHLGKSANFQKPRNIKGKPEAHFSLIHYAGIVDYNIIGWLQKNKDPLNETVVGLYQKSSLKLLSTLFANYAGADAPIEKGKGKAKKGSSFQTVSALHRENLNKLMTNLRSTHPHFVRCIIPNETKSPGVMDNPLVMHQLRCNGVLEGIRICRKGFPNRILYGDFRQRYRILNPAAIPEGQFIDSRKGAEKLLSSLDIDHNQYKFGHTKVFFKAGLLGLLEEMRDERLSRIITRIQAQSRGVLARMEYKKLLERRDSLLVIQWNIRAFMGVKNWPWMKLYFKIKPLLKSAEREKEMASMKEEFTRLKEALEKSEARRKELEEKMVSLLQEKNDLQLQVQAEQDNLADAEERCDQLIKNKIQLEAKVKEMNERLEDEEEMNAELTAKKRKLEDECSELKRDIDDLELTLAKVEKEKHATENKVKNLTEEMAGLDEIIAKLTKEKKALQEAHQQALDDLQAEEDKVNTLTKAKVKLEQQVDDLEGSLEQEKKVRMDLERAKRKLEGDLKLTQESIMDLENDKQQLDERLKKKDFELNALNARIEDEQALGSQLQKKLKELQARIEELEEELEAERTARAKVEKLRSDLSRELEEISERLEEAGGATSVQIEMNKKREAEFQKMRRDLEEATLQHEATAAALRKKHADSVAELGEQIDNLQRVKQKLEKEKSEFKLELDDVTSNMEQIIKAKANLEKMCRTLEDQMNEHRSKAEETQRSVNDLTSQRAKLQTENGELSRQLDEKEALISQLTRGKLTYTQQLEDLKRQLEEEVKAKNALAHALQSARHDCDLLREQYEEETEAKAELQRVLSKANSEVAQWRTKYETDAIQRTEELEEAKKKLAQRLQEAEEAVEAVNAKCSSLEKTKHRLQNEIEDLMVDVERSNAAAAALDKKQRNFDKILAEWKQKYEESQSELESSQKEARSLSTELFKLKNAYEESLEHLETFKRENKNLQEEISDLTEQLGSSGKTIHELEKVRKQLEAEKMELQSALEEAEASLEHEEGKILRAQLEFNQIKAEIERKLAEKDEEMEQAKRNHLRVVDSLQTSLDAETRSRNEALRVKKKMEGDLNEMEIQLSHANRMAAEAQKQVKSLQSLLKDTQIQLDDAVRANDDLKENIAIVERRNNLLQAELEELRAVVEQTERSRKLAEQELIETSERVQLLHSQNTSLINQKKKMDADLSQLQTEVEEAVQECRNAEEKAKKAITDAAMMAEELKKEQDTSAHLERMKKNMEQTIKDLQHRLDEAEQIALKGGKKQLQKLEARVRELENELEAEQKRNAESVKGMRKSERRIKELTYQTEEDRKNLLRLQDLVDKLQLKVKAYKRQAEEAEEQANTNLSKFRKVQHELDEAEERADIAESQVNKLRAKSRDIGTKGLNEE

Variants of: B1
Details: with mypc3_human MYBPC3, Q14896
Chain of mypc3_human MYBPC3, Q14896 (Q14896 whole entry): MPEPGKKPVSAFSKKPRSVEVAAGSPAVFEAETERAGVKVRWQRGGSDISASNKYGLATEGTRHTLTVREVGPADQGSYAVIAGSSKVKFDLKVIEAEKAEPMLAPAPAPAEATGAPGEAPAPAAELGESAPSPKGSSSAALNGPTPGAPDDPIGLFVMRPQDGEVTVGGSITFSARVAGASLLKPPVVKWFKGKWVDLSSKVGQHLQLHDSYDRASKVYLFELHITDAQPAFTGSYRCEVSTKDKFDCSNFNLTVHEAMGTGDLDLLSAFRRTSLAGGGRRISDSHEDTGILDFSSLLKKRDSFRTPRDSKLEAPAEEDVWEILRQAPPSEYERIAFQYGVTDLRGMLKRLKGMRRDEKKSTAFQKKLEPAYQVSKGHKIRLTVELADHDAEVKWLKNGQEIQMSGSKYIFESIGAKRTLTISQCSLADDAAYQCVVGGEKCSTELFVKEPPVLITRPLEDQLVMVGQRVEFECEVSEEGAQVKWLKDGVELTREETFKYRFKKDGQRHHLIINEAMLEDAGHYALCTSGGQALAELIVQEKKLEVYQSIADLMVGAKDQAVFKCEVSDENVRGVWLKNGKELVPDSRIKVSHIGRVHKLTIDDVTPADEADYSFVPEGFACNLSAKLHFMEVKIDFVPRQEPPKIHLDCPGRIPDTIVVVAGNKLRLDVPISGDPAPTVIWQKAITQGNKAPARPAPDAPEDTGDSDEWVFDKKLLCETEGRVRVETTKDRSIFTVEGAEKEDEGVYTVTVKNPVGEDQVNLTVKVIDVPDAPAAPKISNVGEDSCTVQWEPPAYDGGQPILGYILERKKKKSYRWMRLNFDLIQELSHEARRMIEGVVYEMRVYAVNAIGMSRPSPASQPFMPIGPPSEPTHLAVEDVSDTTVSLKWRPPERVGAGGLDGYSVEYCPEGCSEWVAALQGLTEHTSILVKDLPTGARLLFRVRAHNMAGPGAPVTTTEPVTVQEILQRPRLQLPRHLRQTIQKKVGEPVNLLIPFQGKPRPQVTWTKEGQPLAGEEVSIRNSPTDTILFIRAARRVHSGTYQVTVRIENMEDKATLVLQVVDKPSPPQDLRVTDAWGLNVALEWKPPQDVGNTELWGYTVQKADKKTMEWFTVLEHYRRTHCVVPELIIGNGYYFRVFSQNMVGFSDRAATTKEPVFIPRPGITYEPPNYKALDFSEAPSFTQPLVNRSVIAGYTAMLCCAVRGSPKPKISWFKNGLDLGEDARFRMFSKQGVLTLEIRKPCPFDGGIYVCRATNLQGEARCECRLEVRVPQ

| Variant | effect of a mutation on the interaction |
| --- | --- |
| E848G | disrupting interaction strength |

Source: IntAct's records for PubMed 30623132
